Experimental data taken from article PMC5040716.
pKd: −log10 of the molar value.

System: MgaSpn-His (Streptococcus pneumoniae)
Assay: EMSA
Settings: MgaSpn EMSA: 40 mM Tris-HCl pH 7.6, 1 mM DTT, 0.4 mM EDTA, 1-2% glycerol, 50 mM NaCl, 10 mM MgCl2, 500 ug/ml BSA, 2 nM DNA, ambient, 20 min; MgaSpn footprint: …

Work on hlyC 290-bp fragment yielded a pKd of 7.12.
For hlyR 288-bp fragment, the pKd was 7.30.
